Reference: patent publication US20250269056A1 (published 2025)

Target: T1, epidermal growth factor receptor (EGFR) on EGFR-expressing cell lines (HeLa, HT-29, MRC-5, A549) (UniProt P00533 25-1210)
T1 construct: whole, on cells; EGFR expression in the cell lines was verified by Western blot; HEK293T served as the EGFR-negative line; also called EGF receptor
Assay: fluorescence microscopy of Alexa Fluor 488-labelled phage on HeLa cells

B1: M13KO7 helper phage (no display) (other)
chain: AETVESCLAKPHTENSFTNVWKDDKTLDRYANYEGCLWNATGVVVCTGDETQCYGTWVPIGLAIPENEGGGSEGGGSEGGGSEGGGTKPPEYGDTPIPGYTYINPLDGTYPPGTEQNPANPNPSLEESQPLNTFMFQNNRFRNRQGALTVYTGTVTQGTDPVKTYYQYTPVSSKAMYDAYWNGKFRDCAFHSGFNEDPFVCEYQGQSSDLPQPPVNAGGGSGGGSGGGSEGGGSEGGGSEGGGSEGGGSGGGSGSGDFDYEKMANANKGAMTENADENALQSDAKGKLDSVATDYGAAIDGFIGDVSGLANGNGATGDFAGSNSQMAQVGDGDNSPLMNNFRQYLPSLPQSVECRPFVFSAGKPYEFSIDCDKINLFRGVFAFLLYVATFMYVFSTFANILRNKES
notes: mature; Whole phage particle without a ligand, labelled with Alexa Fluor 488 in the localisation experiment; also called EGF- phage; non-displaying phage
- binding result: no binding (tested: 5×10^7 virions/mL)
